Earlier results on one substance are cited in PMC6018615.

For orientation: Kd means the free concentration of one partner at which half of the binding sites on the other are occupied at equilibrium, for simple one-to-one binding.

In the data set the target is TNPO1 (Homo sapiens) (UniProt Q92973).
Sequence of UniProt Q92973 (Q92973 whole entry): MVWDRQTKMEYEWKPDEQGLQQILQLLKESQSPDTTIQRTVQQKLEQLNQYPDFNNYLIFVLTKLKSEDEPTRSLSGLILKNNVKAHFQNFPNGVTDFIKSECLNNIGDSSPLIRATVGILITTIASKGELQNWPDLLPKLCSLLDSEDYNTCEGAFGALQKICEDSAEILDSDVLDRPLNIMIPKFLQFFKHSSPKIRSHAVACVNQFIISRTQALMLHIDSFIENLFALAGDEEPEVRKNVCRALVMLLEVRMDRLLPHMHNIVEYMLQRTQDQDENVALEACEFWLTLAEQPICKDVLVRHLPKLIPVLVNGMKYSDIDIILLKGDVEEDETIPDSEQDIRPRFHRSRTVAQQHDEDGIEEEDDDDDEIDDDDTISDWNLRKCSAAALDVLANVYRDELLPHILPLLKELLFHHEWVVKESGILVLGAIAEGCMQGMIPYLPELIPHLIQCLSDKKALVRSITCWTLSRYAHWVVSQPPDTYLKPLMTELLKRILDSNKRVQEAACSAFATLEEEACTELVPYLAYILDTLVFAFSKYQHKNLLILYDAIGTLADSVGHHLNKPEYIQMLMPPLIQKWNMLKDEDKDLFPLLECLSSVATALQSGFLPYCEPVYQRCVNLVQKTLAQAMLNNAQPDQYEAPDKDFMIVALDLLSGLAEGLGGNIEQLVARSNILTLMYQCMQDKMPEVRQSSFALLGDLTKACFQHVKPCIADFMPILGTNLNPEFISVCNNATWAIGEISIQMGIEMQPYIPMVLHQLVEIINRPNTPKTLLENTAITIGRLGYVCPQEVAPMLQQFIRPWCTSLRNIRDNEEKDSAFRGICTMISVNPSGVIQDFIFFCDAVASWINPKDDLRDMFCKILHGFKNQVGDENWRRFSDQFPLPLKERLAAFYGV

Regarding FUS (from UniProt P35637), the Kd was 9.5 nM.
